Target: hGle1B tagged with mCerulean3 (Cer3-hGle1B) or mVenus (Venus-hGle1B) (human) (UniProt Q53GS7)
Assay: FRET or BRET

UniProt Q53GS7, sequence (Q53GS7 whole entry): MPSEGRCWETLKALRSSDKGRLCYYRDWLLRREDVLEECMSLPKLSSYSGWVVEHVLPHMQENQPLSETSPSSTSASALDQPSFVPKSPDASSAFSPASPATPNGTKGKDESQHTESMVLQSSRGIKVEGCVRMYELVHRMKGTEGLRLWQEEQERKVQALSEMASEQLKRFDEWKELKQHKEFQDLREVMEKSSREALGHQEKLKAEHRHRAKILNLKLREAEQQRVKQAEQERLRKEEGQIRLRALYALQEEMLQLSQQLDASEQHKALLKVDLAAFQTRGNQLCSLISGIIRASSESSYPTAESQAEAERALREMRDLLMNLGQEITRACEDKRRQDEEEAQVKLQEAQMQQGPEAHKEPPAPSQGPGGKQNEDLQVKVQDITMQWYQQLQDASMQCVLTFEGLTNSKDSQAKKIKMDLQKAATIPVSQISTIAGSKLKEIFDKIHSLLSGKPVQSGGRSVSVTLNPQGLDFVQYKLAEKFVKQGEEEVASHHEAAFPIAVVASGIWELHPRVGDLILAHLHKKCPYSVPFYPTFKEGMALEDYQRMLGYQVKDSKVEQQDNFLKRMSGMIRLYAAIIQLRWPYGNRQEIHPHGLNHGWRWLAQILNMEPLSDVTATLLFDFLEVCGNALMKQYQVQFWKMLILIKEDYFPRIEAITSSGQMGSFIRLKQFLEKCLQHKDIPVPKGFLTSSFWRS

FRET efficiency (cytoplasm and nucleoplasm): < 1.25%
normalized FRET (NFRET) signal (all locations): < 4.08
Substance: mCerulean3 alone

From publication PMC3855398
